Laboratory results taken from paper PMC5062977 (Nucleic Acids Research, 2016).

T1: GST-RecA (E. coli, UniProt P0A7G6 2-353)
T1 sequence: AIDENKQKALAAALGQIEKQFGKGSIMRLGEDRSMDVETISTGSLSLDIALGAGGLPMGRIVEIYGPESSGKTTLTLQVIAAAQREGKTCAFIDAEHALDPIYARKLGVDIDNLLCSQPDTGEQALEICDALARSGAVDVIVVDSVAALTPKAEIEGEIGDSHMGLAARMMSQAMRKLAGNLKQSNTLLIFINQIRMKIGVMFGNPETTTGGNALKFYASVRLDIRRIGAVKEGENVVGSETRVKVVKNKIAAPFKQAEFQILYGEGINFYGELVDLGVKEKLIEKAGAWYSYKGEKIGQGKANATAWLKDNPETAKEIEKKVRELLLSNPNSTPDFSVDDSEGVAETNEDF

B1: His-tag RecA (natural protein, E. coli)
chain: AIDENKQKALAAALGQIEKQFGKGSIMRLGEDRSMDVETISTGSLSLDIALGAGGLPMGRIVEIYGPESSGKTTLTLQVIAAAQREGKTCAFIDAEHALDPIYARKLGVDIDNLLCSQPDTGEQALEICDALARSGAVDVIVVDSVAALTPKAEIEGEIGDSHMGLAARMMSQAMRKLAGNLKQSNTLLIFINQIRMKIGVMFGNPETTTGGNALKFYASVRLDIRRIGAVKEGENVVGSETRVKVVKNKIAAPFKQAEFQILYGEGINFYGELVDLGVKEKLIEKAGAWYSYKGEKIGQGKANATAWLKDNPETAKEIEKKVRELLLSNPNSTPDFSVDDSEGVAETNEDF

What was measured:
SEC = molecular target: the molecule itself; assay: SEC
His-tag RecA = molecular target: B1; assay: SEC
GST-RecA = molecular target: T1, GST-RecA; assay: pull-down

| Binder | binding result (SEC) | binding result (His-tag RecA) | binding result (GST-RecA) |
| --- | --- | --- | --- |
| B1 | binds |  |  |
| His-tag AlkB (Escherichia coli alkylation repair protein-B) (enzyme, E. coli) MLDLFADAEPWQEPLAAGAVILRRFAFNAAEQLIRDINDVASQSPFRQMVTPGGYTMSVAMTNCGHLGWTTHRQGYLYSPIDPQTNKPWPAMPQSFHNLCQRAATAAGYPDFQPDACLINRYAPGAKLSLHQDKDEPDLRAPIVSVSLGLPAIFQFGGLKRNDPLKRLLLEHGDVVVWGGESRLFYHGIQPLKAGFHPLTIDCRYNLTFRQAGKKE |  | binds | binds |
